Measurements taken from patent EP1137792B9.

Tests used:
Assay in all cases: cell-based or functional assay
[1] = molecular target: murine Intercellular adhesion molecule-1 (ICAM-1; CD54) (murine) (UniProt P13597)
[2] = molecular target: murine B7-1 (CD80) (murine) (UniProt Q00609)
[3] = molecular target: murine LFA-3 (murine CD48) (murine) (UniProt P18181)
UniProt P18181, sequence (P18181 23-217): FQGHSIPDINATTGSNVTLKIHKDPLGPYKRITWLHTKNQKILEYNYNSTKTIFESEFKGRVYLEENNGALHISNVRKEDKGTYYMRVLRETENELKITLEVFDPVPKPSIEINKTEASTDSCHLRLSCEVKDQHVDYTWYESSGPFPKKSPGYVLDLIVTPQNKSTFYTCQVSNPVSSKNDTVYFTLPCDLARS

UniProt Q00609, sequence (Q00609 38-306): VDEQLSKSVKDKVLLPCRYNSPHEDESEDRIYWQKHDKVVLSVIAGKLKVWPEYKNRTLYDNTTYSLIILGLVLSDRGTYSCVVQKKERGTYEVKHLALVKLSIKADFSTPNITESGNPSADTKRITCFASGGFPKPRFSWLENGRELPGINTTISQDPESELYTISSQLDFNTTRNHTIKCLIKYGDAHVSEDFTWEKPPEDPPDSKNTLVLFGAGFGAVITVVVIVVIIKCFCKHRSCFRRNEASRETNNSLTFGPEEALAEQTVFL
UniProt P13597, sequence (P13597 28-537): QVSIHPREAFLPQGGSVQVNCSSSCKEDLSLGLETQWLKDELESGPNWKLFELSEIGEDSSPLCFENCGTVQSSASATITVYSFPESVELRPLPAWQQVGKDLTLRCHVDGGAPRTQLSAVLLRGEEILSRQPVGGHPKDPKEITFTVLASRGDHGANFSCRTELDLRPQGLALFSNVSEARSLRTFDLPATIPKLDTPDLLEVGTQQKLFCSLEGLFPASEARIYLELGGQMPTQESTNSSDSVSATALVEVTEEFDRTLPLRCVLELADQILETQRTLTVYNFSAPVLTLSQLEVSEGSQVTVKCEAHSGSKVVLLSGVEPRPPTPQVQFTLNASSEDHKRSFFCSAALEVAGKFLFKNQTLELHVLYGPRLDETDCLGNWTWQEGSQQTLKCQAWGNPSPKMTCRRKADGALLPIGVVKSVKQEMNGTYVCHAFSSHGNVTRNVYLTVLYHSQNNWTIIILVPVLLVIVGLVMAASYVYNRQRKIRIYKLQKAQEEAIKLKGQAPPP

Substance: Hamster anti-murine CD54 (ICAM-1; clone 3E2) (antibody)
- reduction of the increased T-cell proliferation supported by MC38/ICAM-1 stimulator cells with Con A [1]: 88%

Substance: Hamster anti-murine CD80 (B7-1; clone 16-10A1) (antibody)
- inhibition of the increased T-cell proliferation supported by MC38/B7-1 stimulator cells with Con A [2]: 83%

Substance: Hamster anti-murine CD48 (BCM-1; clone HM48-1) (antibody)
- reduction of the increased T-cell proliferation supported by MC38/LFA-3 stimulator cells with Con A [3]: 98%
